Data as given in the array DNA melting data of Ke et al..

Test: melting temperature; melt of duplexes
Conditions: sodium 0.0675 M; strand 1 µM

| Substance | Tm |
| --- | --- |
| CGACGTGCGAAATGTGCTG+CAGCACATTTAGCACGTCG ((((((((.((((((((((+)))))))))).)))))))) | 57.9 °C |
| CGACGTGCGAAATGTGCTG+CAGCACATTTGGCACGTCG ((((((((.((((((((((+)))))))))).)))))))) | 57.3 °C |
| CGACGTGCGACATGTGCTG+CAGCACATAATGCACGTCG ((((((((...((((((((+))))))))...)))))))) | 50.8 °C |
| CGACGTGCGACATGTGCTG+CAGCACATACAGCACGTCG ((((((((...((((((((+))))))))...)))))))) | 53.1 °C |
| CGACGTGCGACATGTGCTG+CAGCACATACGGCACGTCG ((((((((...((((((((+))))))))...)))))))) | 48.8 °C |
| CGACGTGCGACATGTGCTG+CAGCACATAGGGCACGTCG ((((((((...((((((((+))))))))...)))))))) | 50 °C |
| CGACGTGCGACATGTGCTG+CAGCACATATGGCACGTCG ((((((((.(.((((((((+)))))))).).)))))))) | 50.2 °C |
| CGACGTGCGACATGTGCTG+CAGCACATATTGCACGTCG ((((((((.(.((((((((+)))))))).).)))))))) | 51.5 °C |
| CGACGTGCGACATGTGCTG+CAGCACATCAGGCACGTCG ((((((((...((((((((+))))))))...)))))))) | 49 °C |
| CGACGTGCGACATGTGCTG+CAGCACATCATGCACGTCG ((((((((...((((((((+))))))))...)))))))) | 49.1 °C |
| CGACGTGCGACATGTGCTG+CAGCACATCGAGCACGTCG ((((((((...((((((((+))))))))...)))))))) | 54.8 °C |
| CGACGTGCGACATGTGCTG+CAGCACATCGCGCACGTCG (((((((((..((((((((+))))))))..))))))))) | 54.1 °C |
| CGACGTGCGACATGTGCTG+CAGCACATCGTGCACGTCG ((((((((...((((((((+))))))))...)))))))) | 47.6 °C |
| CGACGTGCGACATGTGCTG+CAGCACATCTAGCACGTCG ((((((((.(.((((((((+)))))))).).)))))))) | 51.5 °C |
| CGACGTGCGACATGTGCTG+CAGCACATGCGGCACGTCG ((((((((..(((((((((+)))))))))..)))))))) | 54.4 °C |
| CGACGTGCGACATGTGCTG+CAGCACATGGGGCACGTCG ((((((((..(((((((((+)))))))))..)))))))) | 58.4 °C |
| CGACGTGCGACATGTGCTG+CAGCACATGTTGCACGTCG ((((((((.((((((((((+)))))))))).)))))))) | 60.9 °C |
| CGACGTGCGACATGTGCTG+CAGCACATTAAGCACGTCG ((((((((...((((((((+))))))))...)))))))) | 53.3 °C |
| CGACGTGCGACATGTGCTG+CAGCACATTCGGCACGTCG ((((((((...((((((((+))))))))...)))))))) | 51.9 °C |
| CGACGTGCGACATGTGCTG+CAGCACATTGCGCACGTCG (((((((((..((((((((+))))))))..))))))))) | 55.3 °C |
| CGACGTGCGACATGTGCTG+CAGCACATTTGGCACGTCG ((((((((.(.((((((((+)))))))).).)))))))) | 50.6 °C |
| CGACGTGCGACATGTGCTG+CAGCACATTTTGCACGTCG ((((((((.(.((((((((+)))))))).).)))))))) | 51.4 °C |
| CGACGTGCGAGATGTGCTG+CAGCACATAAGGCACGTCG ((((((((...((((((((+))))))))...)))))))) | 51.1 °C |
| CGACGTGCGAGATGTGCTG+CAGCACATACGGCACGTCG ((((((((...((((((((+))))))))...)))))))) | 50.1 °C |

| Substance | Tm |
| --- | --- |
| CGACGTGCGAGATGTGCTG+CAGCACATAGGGCACGTCG ((((((((...((((((((+))))))))...)))))))) | 50.7 °C |
| CGACGTGCGAGATGTGCTG+CAGCACATAGTGCACGTCG ((((((((...((((((((+))))))))...)))))))) | 47.6 °C |
| CGACGTGCGAGATGTGCTG+CAGCACATATCGCACGTCG ((((((((((.((((((((+)))))))).)))))))))) | 60.4 °C |
| CGACGTGCGAGATGTGCTG+CAGCACATATGGCACGTCG ((((((((.(.((((((((+)))))))).).)))))))) | 53.3 °C |
| CGACGTGCGAGATGTGCTG+CAGCACATATTGCACGTCG ((((((((.(.((((((((+)))))))).).)))))))) | 54.4 °C |
| CGACGTGCGAGATGTGCTG+CAGCACATCCAGCACGTCG ((((((((..(((((((((+)))))))))..)))))))) | 56.5 °C |
| CGACGTGCGAGATGTGCTG+CAGCACATCCCGCACGTCG (((((((((.(((((((((+))))))))).))))))))) | 60.3 °C |
| CGACGTGCGAGATGTGCTG+CAGCACATCCGGCACGTCG ((((((((..(((((((((+)))))))))..)))))))) | 55.7 °C |
| CGACGTGCGAGATGTGCTG+CAGCACATCGAGCACGTCG ((((((((..(((((((((+)))))))))..)))))))) | 64.5 °C |
| CGACGTGCGAGATGTGCTG+CAGCACATCTAGCACGTCG ((((((((.((((((((((+)))))))))).)))))))) | 59.7 °C |
| CGACGTGCGAGATGTGCTG+CAGCACATCTCGCACGTCG (((((((((((((((((((+))))))))))))))))))) | 66.5 °C |
| CGACGTGCGAGATGTGCTG+CAGCACATCTTGCACGTCG ((((((((.((((((((((+)))))))))).)))))))) | 60.2 °C |
| CGACGTGCGAGATGTGCTG+CAGCACATGAAGCACGTCG ((((((((...((((((((+))))))))...)))))))) | 55.4 °C |
| CGACGTGCGAGATGTGCTG+CAGCACATGCAGCACGTCG ((((((((...((((((((+))))))))...)))))))) | 53.7 °C |
| CGACGTGCGAGATGTGCTG+CAGCACATGCCGCACGTCG (((((((((..((((((((+))))))))..))))))))) | 55.4 °C |
| CGACGTGCGAGATGTGCTG+CAGCACATGCGGCACGTCG ((((((((...((((((((+))))))))...)))))))) | 50.4 °C |
| CGACGTGCGAGATGTGCTG+CAGCACATGCTGCACGTCG ((((((((...((((((((+))))))))...)))))))) | 50.4 °C |
| CGACGTGCGAGATGTGCTG+CAGCACATGGGGCACGTCG ((((((((...((((((((+))))))))...)))))))) | 51.1 °C |
| CGACGTGCGAGATGTGCTG+CAGCACATGTCGCACGTCG ((((((((((.((((((((+)))))))).)))))))))) | 60.6 °C |
| CGACGTGCGAGATGTGCTG+CAGCACATGTTGCACGTCG ((((((((.(.((((((((+)))))))).).)))))))) | 54.3 °C |
| CGACGTGCGAGATGTGCTG+CAGCACATTACGCACGTCG (((((((((..((((((((+))))))))..))))))))) | 55.4 °C |
| CGACGTGCGAGATGTGCTG+CAGCACATTCTGCACGTCG ((((((((...((((((((+))))))))...)))))))) | 52.9 °C |
| CGACGTGCGAGATGTGCTG+CAGCACATTGTGCACGTCG ((((((((...((((((((+))))))))...)))))))) | 49.7 °C |
| CGACGTGCGAGATGTGCTG+CAGCACATTTAGCACGTCG ((((((((.(.((((((((+)))))))).).)))))))) | 53.3 °C |

| Substance | Tm |
| --- | --- |
| CGACGTGCGATATGTGCTG+CAGCACATAAGGCACGTCG ((((((((..(((((((((+)))))))))..)))))))) | 52 °C |
| CGACGTGCGATATGTGCTG+CAGCACATACTGCACGTCG ((((((((..(((((((((+)))))))))..)))))))) | 52.6 °C |
| CGACGTGCGATATGTGCTG+CAGCACATAGAGCACGTCG ((((((((..(((((((((+)))))))))..)))))))) | 58.5 °C |
| CGACGTGCGATATGTGCTG+CAGCACATATGGCACGTCG ((((((((.((((((((((+)))))))))).)))))))) | 56.5 °C |
| CGACGTGCGATATGTGCTG+CAGCACATCAAGCACGTCG ((((((((...((((((((+))))))))...)))))))) | 52.1 °C |
| CGACGTGCGATATGTGCTG+CAGCACATCACGCACGTCG (((((((((..((((((((+))))))))..))))))))) | 53.7 °C |
| CGACGTGCGATATGTGCTG+CAGCACATCCGGCACGTCG ((((((((...((((((((+))))))))...)))))))) | 49.3 °C |
| CGACGTGCGATATGTGCTG+CAGCACATCGAGCACGTCG ((((((((...((((((((+))))))))...)))))))) | 53.6 °C |
| CGACGTGCGATATGTGCTG+CAGCACATCTGGCACGTCG ((((((((.(.((((((((+)))))))).).)))))))) | 50 °C |
| CGACGTGCGATATGTGCTG+CAGCACATCTTGCACGTCG ((((((((.(.((((((((+)))))))).).)))))))) | 51.2 °C |
| CGACGTGCGATATGTGCTG+CAGCACATGAGGCACGTCG ((((((((...((((((((+))))))))...)))))))) | 53.1 °C |
| CGACGTGCGATATGTGCTG+CAGCACATGCAGCACGTCG ((((((((...((((((((+))))))))...)))))))) | 53.6 °C |
| CGACGTGCGATATGTGCTG+CAGCACATGGAGCACGTCG ((((((((...((((((((+))))))))...)))))))) | 57.4 °C |
| CGACGTGCGATATGTGCTG+CAGCACATGGCGCACGTCG (((((((((..((((((((+))))))))..))))))))) | 57.4 °C |
| CGACGTGCGATATGTGCTG+CAGCACATGGTGCACGTCG ((((((((...((((((((+))))))))...)))))))) | 49.2 °C |
| CGACGTGCGATATGTGCTG+CAGCACATGTAGCACGTCG ((((((((.(.((((((((+)))))))).).)))))))) | 54.9 °C |
| CGACGTGCGATATGTGCTG+CAGCACATGTCGCACGTCG ((((((((((.((((((((+)))))))).)))))))))) | 61 °C |
| CGACGTGCGATATGTGCTG+CAGCACATGTTGCACGTCG ((((((((.(.((((((((+)))))))).).)))))))) | 54.6 °C |
| CGACGTGCGATATGTGCTG+CAGCACATTAGGCACGTCG ((((((((...((((((((+))))))))...)))))))) | 50.8 °C |
| CGACGTGCGATATGTGCTG+CAGCACATTCAGCACGTCG ((((((((...((((((((+))))))))...)))))))) | 52.8 °C |
| CGACGTGCGATATGTGCTG+CAGCACATTCGGCACGTCG ((((((((...((((((((+))))))))...)))))))) | 52.7 °C |
| CGACGTGCGATATGTGCTG+CAGCACATTGGGCACGTCG ((((((((...((((((((+))))))))...)))))))) | 50.3 °C |
| CGACGTGCGATATGTGCTG+CAGCACATTTTGCACGTCG ((((((((.(.((((((((+)))))))).).)))))))) | 52.5 °C |
| CGACGTGCGCAATGTGCTG+CAGCACATAAGGCACGTCG ((((((((...((((((((+))))))))...)))))))) | 50.9 °C |
